Patent publication US20190225698A1 (JIANGSU HENGRUI MEDICINE, published 2019)

T1: human FAS expressed on transfected HEK293 cells (human, UniProt P25445 26-335)
T1 construct: whole, on cells
T1 sequence (looked up): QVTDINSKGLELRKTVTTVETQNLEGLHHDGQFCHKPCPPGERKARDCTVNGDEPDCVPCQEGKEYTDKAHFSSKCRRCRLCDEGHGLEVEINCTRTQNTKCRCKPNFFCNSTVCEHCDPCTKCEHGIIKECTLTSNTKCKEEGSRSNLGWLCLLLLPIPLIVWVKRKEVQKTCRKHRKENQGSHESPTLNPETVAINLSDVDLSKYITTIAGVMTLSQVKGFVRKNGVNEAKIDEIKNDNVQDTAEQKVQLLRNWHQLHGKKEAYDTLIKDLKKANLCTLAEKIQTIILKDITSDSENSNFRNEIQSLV

T2: murine FAS expressed on transfected HEK293 cells (murine, UniProt P25446 22-327)
T2 construct: whole, on cells
T2 sequence (looked up): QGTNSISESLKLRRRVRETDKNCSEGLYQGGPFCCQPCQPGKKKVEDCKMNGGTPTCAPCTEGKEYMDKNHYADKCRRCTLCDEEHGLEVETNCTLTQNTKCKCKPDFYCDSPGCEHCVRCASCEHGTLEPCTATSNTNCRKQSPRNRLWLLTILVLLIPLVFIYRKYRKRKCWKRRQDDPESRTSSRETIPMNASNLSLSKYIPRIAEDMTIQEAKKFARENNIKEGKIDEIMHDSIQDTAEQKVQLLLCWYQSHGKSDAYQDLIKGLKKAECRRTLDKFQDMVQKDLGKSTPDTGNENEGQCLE

T3: murine CD27 expressed on the cell surface of transfected HEK293 cells (murine, UniProt P41272 24-250)
T3 construct: whole, on cells; also called mouse CD27 antigen expressed by HEK293 cells
T3 sequence (looked up): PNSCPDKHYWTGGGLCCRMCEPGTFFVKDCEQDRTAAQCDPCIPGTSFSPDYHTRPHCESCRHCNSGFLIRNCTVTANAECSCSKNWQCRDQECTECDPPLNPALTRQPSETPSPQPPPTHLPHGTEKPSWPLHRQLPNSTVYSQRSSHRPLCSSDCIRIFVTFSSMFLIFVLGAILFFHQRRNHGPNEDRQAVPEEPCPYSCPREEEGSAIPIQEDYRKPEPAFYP

T4: human CD27 expressed on the cell surface of transfected HEK293 cells (human, UniProt P26842 20-260)
T4 construct: whole, on cells; also called human CD27 antigen expressed by HEK293 cells
T4 sequence (looked up): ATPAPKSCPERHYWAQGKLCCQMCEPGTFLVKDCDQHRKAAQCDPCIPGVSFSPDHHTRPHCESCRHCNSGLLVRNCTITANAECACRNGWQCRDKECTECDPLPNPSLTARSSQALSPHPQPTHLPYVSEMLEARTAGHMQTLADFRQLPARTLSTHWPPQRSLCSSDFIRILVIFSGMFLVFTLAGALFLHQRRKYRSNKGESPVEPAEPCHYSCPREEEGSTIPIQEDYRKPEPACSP


What was measured:
[1] = target: T1, human FAS expressed on transfected …; assay: flow cytometry on transfected HEK293 cells
[2] = target: T2, murine FAS expressed on transfected …; assay: flow cytometry on transfected HEK293 cells
[3] = target: T3, murine CD27 expressed on the cell …; assay: flow cytometry on transfected HEK293 cells
[4] = target: T4, human CD27 expressed on the cell …; assay: flow cytometry on transfected HEK293 cells
[5] = target: T3, murine CD27 expressed on the cell …; assay: flow cytometry on transfected HEK293 cells, 100 nM antibody
Experimental: (§1) The binding of antibody to human or murine CD27 expressed on cell surface is determined by fluorescence activated cell sorting (FACS). The corresponding antigen was transiently transfected into HEK293 cells using a vector plasmid and expressed. After 48 hours, cells were harvested and washed once with cold FACS buffer (PBS, 1% BSA), and then incubated with 100 nM corresponding antibody for 1 hour on ice. After washing twice with buffer, the cells were bound to Alexa Fluor 647-conjugated murine anti-human Fc antibody for 30 minutes on ice. After washing once, the cells were loaded onto a Beckman® CytoFlex flow cytometer for detection and the percentage of cells with binding signals was calculated.

[6] = target: T4, human CD27 expressed on the cell …; assay: as above
Experimental: as §1

Row | Binder | binding result [1] | binding result [2] | binding result [3] | binding result [4] | binding result [5] | binding result [6]
1 | anti-CD27 antibody mAb076 (IgG1 form) (antibody, V domains shown, Human antibody from phage display) VH: EVQLVESGGGLVQPGGSLRLSCAASGFTFSDYGIHWVRQAPGKGLEWIGWINPNRGSTNYAQKFQGRVTISRDNSKNTLYLQLNSLRAEDTAVYYCARDYGYTWYFDVWGQGTLVTVSS VL: DIQLTQSPSSLSASVGDRVTITCRASQDISSVLAWYQQKPGKAPKLLIYAASSLQSGVPSRFSGSGSGTDFTLTISSLQPEDFATYYCQQRDAWPLTFGQGTKVEIK | no binding (tested: 100 nM) | no binding (tested: 100 nM) | binds | binds | – | –
2 | anti-CD27 antibody mAb077 (IgG1 form) (antibody, V domains shown, Human antibody from phage display) VH: EVQLVESGGGLVQPGGSLRLSCAASGFTFSGYGIHWVRQAPGKGLEWIGWINPNRGSTKYAQKFQGRVTISRDNSKNTLYLQLNSLRAEDTAVYYCARDPGYTWYFDVWGQGTLVTVSS VL: DIQLTQSPSSLSASVGDRVTITCRASQDISSDLAWYQQKPGKAPKLLIYAASTLQSGVPSRFSGSGSGTDFTLTISSLQPEDFATYYCQQRDAWPPTFGQGTKVEIK | no binding (tested: 100 nM) | no binding (tested: 100 nM) | – | – | binds | binds
